Test results from publication PMC9772228, “Structure of a RecT/Redβ family recombinase in complex with a duplex intermediate of DNA annealing”.

How the values were obtained:
Assay in all cases: EMSA; EMSA: PBS pH 7.4 (or KH2PO4/10 mM MgCl2 pH 6.0), 3.6 or 5 uM protein, 25 uM nt DNA, 37 C 15 min per strand, 0.8% agarose 1x TBE; cryo-EM: 20 mM KH2PO4 (Results: 10 mM), 10 mM MgCl2 pH 6.0, 37 C; native MS: 100 mM ammonium acetate pH 7, 37 C
Conditions in all cases: protein: recombinant, tags: N-terminal 6His vector tag (20 aa) retained, chain copies: 10
LiRecT V98W = target: T1, LiRecT V98W (Listeria innocua CLIP 11262, UniProt Q92FL9 1-271, V98W)
T1 sequence: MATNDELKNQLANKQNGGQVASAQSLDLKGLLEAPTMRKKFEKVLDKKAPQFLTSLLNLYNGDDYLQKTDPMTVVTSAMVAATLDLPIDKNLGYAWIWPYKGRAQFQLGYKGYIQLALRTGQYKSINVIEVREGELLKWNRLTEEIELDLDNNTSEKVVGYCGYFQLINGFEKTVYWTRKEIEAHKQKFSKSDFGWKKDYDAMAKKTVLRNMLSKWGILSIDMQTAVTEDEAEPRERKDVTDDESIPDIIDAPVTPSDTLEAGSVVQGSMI

LiRecT V98A/Y100A = target: T2, LiRecT V98A/Y100A (Listeria innocua CLIP 11262, UniProt Q92FL9 1-271, V98A;Y100A)
T2 sequence: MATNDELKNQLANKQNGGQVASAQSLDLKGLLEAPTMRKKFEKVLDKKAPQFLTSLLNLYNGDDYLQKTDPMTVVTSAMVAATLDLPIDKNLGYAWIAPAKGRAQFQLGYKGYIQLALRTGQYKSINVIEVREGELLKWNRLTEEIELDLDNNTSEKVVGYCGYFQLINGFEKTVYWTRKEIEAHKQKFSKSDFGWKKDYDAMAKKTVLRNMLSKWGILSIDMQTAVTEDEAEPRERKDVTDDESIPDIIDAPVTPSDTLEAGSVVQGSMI

LiRecT Q107A = target: T3, LiRecT Q107A (Listeria innocua CLIP 11262, UniProt Q92FL9 1-271, Q107A)
T3 sequence: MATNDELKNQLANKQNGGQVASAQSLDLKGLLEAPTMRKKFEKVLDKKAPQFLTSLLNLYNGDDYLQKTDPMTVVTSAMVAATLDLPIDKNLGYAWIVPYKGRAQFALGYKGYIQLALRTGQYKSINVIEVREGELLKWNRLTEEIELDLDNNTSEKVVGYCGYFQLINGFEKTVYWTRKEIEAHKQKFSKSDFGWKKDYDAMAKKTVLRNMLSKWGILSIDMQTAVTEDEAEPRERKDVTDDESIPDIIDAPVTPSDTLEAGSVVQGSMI

LiRecT Y100E = target: T4, LiRecT Y100E (Listeria innocua CLIP 11262, UniProt Q92FL9 1-271, Y100E)
T4 sequence: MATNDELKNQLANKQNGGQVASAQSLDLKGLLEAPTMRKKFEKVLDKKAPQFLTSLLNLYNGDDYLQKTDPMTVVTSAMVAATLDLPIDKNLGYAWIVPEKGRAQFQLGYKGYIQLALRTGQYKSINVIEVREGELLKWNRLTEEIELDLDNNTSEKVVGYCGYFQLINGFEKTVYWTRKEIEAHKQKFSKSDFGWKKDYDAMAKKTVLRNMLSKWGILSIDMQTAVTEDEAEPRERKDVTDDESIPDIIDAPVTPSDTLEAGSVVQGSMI

LiRecT K215A/W216A = target: T5, LiRecT K215A/W216A (Listeria innocua CLIP 11262, UniProt Q92FL9 1-271, K215A;W216A)
T5 sequence: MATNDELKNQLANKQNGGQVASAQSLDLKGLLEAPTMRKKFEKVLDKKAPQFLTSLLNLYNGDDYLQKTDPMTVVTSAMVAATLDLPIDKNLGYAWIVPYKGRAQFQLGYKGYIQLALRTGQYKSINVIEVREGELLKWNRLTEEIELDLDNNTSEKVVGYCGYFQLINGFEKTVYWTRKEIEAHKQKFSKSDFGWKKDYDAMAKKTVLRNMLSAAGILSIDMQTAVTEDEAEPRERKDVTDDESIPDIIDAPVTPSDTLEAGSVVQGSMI

[1] = label: 5'-Cy3;5'-Cy5, 49 bp, 1 nt 5' overhang at each end

CCATCCGCAAAAATCGAGCTATGCAGGGCGATTCTGCTCTAAGCCATCCG (ssDNA) [Cy5-50mer]: binds (LiRecT V98W; label: 5'-Cy5, single strand); binds (LiRecT V98A/Y100A; label: 5'-Cy5, single strand); binds (LiRecT Q107A; label: 5'-Cy5, single strand). CCATCCGCAAAAATCGAGCTATGCAGGGCGATTCTGCTCTAAGCCATCCG (ssDNA) [Cy5-50mer]: binds (LiRecT Y100E; label: 5'-Cy5, single strand); no binding (LiRecT K215A/W216A; label: 5'-Cy5, single strand).

GCGGATGGCTTAGAGCAGAATCGCCCTGCATAGCTCGATTTTTGCGGATG (ssDNA) [Cy3-50mer]: binds (LiRecT V98W; label: 5'-Cy3, single strand); binds (LiRecT V98A/Y100A; label: 5'-Cy3, single strand); binds (LiRecT Q107A; label: 5'-Cy3, single strand). GCGGATGGCTTAGAGCAGAATCGCCCTGCATAGCTCGATTTTTGCGGATG (ssDNA) [Cy3-50mer]: binds (LiRecT Y100E; label: 5'-Cy3, single strand); no binding (LiRecT K215A/W216A; label: 5'-Cy3, single strand).

B1: 50-mer duplex intermediate (sequential addition) (dsDNA)
DNA 1: GCGGATGGCTTAGAGCAGAATCGCCCTGCATAGCTCGATTTTTGCGGATG
DNA 2: CCATCCGCAAAAATCGAGCTATGCAGGGCGATTCTGCTCTAAGCCATCCG
B1: binds (LiRecT V98W; [1]); binds (LiRecT V98A/Y100A; [1]); binds (LiRecT Q107A; [1]). B1: binds (LiRecT Y100E; [1]); no binding (LiRecT K215A/W216A; [1]).
